Source: publication PMC8863895, “A synthetic protein as efficient multitarget regulator against complement over-activation” (Communications Biology, 2022)
One block for each binder: values may come before it.

Legend:
Details in all cases: both partners purified
C3b = molecular target: T1, C3b (human); experiment: ELISA; decay acceleration assay: 250 ng C3b immobilised on Maxisorp; C3bBb formed with 400 ng Factor B and 25 ng Factor D, 2 h 37 °C; increasing concentrations of regulator, 40 min 37 °C; Bb remaining bound to C3b detected with anti-factor B polyclonal antibody
T1 construct: complement C3, C3b β-chain; complement C3, C3b α′-chain (C3 α-chain after release of C3a); also called complement C3b; source: bought: CompTech

C7 = molecular target: T2, C7 (human, UniProt P10643 23-843); experiment: ELISA; C5b6, C6, C7, C8, C9, C3b or C5 (5 µg/mL) immobilised on Maxisorp plates; single concentration of regulator (25 nM MFHR13 or MFHR1 variants, 50 nM FHR1); detected with anti-His-tag antibodies
T2 construct: complement component C7; Supplier is stated for the ELISA; also called complement component C7; source: bought: CompTech

C6 = molecular target: T3, C6 (human, UniProt P13671 22-934); experiment: as above
T3 construct: complement component C6; also called complement component C6; source: bought: CompTech

C9 = molecular target: T4, C9 (human, UniProt P02748 22-559); experiment: as above
T4 construct: complement component C9; Supplier is stated for the ELISA; also called complement component C9; source: bought: CompTech

C8 = molecular target: T5, C8 (human, UniProt P07357 31-584; P07358 55-591; P07360 21-202); experiment: as above
T5 construct: also called complement component C8; source: bought: CompTech; copies: + +

complement C3b = molecular target: T6, complement C3b (UniProt P01024 749-1663; P01024 749-1663); experiment: ELISA; 5 µg/mL C3b or C5 immobilised on Maxisorp plates at 4 °C overnight; increasing concentrations of regulator (0.195-50 nM) in sample buffer (2% BSA in TBS, 0.05% Tween-20); detected with anti-His-tag antibodies; absorbance normalised to the highest concentration; IC50 from a 4PL nonlinear regression
T6 construct: C3b beta-chain, cut product of complement C3; C3b alpha'-chain, cut product of complement C3 (alpha chain without C3a); source: bought: CompTech

complement C5 = molecular target: T7, complement C5; experiment: as above
T7 construct: complement C5 beta chain; complement C5 alpha chain; source: bought: CompTech

T5 sequence (P07357 31-584, chain 1 of 3): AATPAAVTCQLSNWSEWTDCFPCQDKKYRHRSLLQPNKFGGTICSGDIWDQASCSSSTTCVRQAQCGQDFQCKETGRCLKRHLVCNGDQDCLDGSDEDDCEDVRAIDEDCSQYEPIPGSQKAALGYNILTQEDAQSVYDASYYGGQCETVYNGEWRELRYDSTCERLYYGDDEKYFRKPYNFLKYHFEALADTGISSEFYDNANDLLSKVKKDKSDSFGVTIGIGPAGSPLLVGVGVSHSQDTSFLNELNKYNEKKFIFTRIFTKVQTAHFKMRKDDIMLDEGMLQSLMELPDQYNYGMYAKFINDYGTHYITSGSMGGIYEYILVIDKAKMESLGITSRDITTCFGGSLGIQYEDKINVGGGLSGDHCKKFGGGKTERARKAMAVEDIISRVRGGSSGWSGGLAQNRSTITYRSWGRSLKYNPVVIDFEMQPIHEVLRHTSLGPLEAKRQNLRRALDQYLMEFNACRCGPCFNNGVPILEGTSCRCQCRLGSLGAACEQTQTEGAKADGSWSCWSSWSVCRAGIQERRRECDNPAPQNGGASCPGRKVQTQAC
T5 sequence (P07358 55-591, chain 2 of 3): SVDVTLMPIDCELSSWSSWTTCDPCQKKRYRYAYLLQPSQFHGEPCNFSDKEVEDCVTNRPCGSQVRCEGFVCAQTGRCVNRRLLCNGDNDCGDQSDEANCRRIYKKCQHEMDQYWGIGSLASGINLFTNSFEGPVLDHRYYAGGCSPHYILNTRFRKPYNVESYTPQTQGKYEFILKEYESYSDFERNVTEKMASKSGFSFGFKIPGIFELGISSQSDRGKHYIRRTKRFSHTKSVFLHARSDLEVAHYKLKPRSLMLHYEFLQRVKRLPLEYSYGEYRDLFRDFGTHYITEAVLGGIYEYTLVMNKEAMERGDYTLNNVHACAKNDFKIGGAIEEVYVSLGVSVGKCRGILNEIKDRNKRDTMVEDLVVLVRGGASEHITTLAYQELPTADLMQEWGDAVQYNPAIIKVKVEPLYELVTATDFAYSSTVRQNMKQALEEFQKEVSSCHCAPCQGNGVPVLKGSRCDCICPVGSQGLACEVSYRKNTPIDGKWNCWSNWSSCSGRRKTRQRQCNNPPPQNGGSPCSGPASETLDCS
T5 sequence (P07360 21-202, chain 3 of 3): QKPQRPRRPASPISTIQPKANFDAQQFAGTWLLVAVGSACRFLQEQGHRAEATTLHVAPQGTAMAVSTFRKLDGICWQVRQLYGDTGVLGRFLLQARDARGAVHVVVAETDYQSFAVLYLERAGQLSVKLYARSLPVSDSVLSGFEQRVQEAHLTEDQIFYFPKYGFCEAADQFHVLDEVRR
T3 sequence (P13671 22-934): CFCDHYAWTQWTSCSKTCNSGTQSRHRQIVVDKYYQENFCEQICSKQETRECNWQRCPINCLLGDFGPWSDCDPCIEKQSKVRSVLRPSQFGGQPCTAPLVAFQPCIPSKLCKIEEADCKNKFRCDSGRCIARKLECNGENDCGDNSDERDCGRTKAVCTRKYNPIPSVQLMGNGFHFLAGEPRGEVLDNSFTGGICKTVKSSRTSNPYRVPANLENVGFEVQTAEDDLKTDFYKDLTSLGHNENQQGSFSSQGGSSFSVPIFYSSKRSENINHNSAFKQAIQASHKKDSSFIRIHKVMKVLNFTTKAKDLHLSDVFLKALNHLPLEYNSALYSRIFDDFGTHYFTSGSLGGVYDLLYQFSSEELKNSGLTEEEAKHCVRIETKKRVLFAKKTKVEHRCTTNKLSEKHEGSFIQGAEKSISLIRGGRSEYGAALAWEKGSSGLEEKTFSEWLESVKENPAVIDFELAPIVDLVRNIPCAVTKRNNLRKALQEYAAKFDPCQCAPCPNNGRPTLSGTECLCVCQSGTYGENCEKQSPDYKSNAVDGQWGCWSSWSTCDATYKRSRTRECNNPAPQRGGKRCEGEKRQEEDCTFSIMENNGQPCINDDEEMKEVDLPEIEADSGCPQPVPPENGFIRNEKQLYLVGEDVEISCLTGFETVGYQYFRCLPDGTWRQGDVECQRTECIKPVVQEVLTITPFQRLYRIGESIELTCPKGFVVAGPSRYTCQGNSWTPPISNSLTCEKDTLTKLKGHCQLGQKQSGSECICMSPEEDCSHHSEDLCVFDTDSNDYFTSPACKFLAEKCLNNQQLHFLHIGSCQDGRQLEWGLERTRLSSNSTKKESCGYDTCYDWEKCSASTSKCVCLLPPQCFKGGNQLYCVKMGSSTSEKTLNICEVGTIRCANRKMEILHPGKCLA
T2 sequence (P10643 23-843): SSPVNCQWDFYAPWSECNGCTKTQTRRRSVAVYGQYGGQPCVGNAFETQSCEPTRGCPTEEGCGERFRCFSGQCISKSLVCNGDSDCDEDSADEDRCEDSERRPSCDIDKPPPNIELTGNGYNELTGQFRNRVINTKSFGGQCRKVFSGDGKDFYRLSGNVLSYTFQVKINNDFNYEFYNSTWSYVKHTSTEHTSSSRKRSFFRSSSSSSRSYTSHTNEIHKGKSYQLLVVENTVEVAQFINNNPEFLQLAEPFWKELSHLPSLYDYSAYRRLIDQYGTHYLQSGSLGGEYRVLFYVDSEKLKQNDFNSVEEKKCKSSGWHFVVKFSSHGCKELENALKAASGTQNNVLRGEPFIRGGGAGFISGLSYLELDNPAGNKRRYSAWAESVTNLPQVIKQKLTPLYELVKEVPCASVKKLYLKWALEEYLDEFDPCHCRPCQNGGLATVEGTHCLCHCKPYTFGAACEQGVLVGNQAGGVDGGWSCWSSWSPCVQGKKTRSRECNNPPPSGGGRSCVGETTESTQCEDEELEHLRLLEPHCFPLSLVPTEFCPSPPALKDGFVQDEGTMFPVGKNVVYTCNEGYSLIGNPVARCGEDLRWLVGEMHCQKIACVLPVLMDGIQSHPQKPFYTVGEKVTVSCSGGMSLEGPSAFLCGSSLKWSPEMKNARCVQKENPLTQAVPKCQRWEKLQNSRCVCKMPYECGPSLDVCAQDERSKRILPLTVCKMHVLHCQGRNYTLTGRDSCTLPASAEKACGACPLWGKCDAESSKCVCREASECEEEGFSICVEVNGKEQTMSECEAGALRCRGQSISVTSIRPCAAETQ
T4 sequence (P02748 22-559): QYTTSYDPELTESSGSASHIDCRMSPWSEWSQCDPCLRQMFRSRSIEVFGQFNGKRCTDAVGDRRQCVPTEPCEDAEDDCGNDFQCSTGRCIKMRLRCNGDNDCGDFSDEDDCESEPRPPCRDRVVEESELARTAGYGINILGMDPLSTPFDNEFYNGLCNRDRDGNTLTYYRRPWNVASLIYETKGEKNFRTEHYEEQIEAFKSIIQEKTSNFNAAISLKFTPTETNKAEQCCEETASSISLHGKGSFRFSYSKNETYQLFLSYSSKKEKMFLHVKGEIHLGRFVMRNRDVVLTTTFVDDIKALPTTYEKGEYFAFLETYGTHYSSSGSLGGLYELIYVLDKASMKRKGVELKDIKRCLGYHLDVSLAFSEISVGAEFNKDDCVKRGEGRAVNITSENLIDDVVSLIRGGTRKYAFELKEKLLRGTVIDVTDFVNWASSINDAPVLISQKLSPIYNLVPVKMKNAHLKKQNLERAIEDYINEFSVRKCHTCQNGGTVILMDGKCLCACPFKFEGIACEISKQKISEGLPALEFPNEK

IC50 (C3b): 2.7 nM
B1: MFHR13 (FHR1_(1-2):FH1-4:FH13:FH_(19-20)) (other)
chain: EATFCDFPKINHGILYDEEKYKPFSQVPTGEVFYYSCEYNFVSPSKSFWTRITCTEEGWSPTPKCLRLCFFPFVENGHSESSGQTHLEGDTVQIICNTGYRLQNNENNISCVERGWSTPPKCRSTEDCNELPPRRNTEILTGSWSDQTYPEGTQAIYKCRPGYRSLGNIIMVCRKGEWVALNPLRKCQKRPCGHPGDTPFGTFTLTGGNVFEYGVKAVYTCNEGYQLLGEINYRECDTDGWTNDIPICEVVKCLPVTAPENGKIVSSAMEPDREYHFGQAVRFVCNSGYKIEGDEEMHCSDDGFWSKEKPKCVEISCKSPDVINGSPISQKIIYKENERFQYKCNMGYEYSERGDAVCTESGWRPLPSCVAIDKLKKCKSSNLIILEEHLKNKKEFDHNSNIRYRCRGKEGWIHTVCINGRWDPEVNCSMAQIQLCGPPPPIDNGDITSFPLSVYAPASSVEYQCQNLYQLEGNKRITCRNGQWSEPPKCLHPCVISREIMENYNIALRWTAKQKLYSRTGESVEFVCKRGYRLSSRSHTLRTTCWDGKLEYPTCAKR
modifications: N-glycan at the NIS site in FHR1 SCR2 (around 65% occupied); N-glycan at the NCS site in FH13 (fully glycosylated); glycosylation site in FH4 deamidated and not glycosylated; labelled with NT-647 RED-NHS for MST

binding result (C7): binds
binding result (C6): binds
binding result (C9): binds
binding result (C8): binds
B2: Recombinant FHR1 (human FH-related protein 1) with a C-terminal 6x His-tag (natural protein, UniProt Q03591 19-330, looked up)
chain: EATFCDFPKINHGILYDEEKYKPFSQVPTGEVFYYSCEYNFVSPSKSFWTRITCTEEGWSPTPKCLRLCFFPFVENGHSESSGQTHLEGDTVQIICNTGYRLQNNENNISCVERGWSTPPKCRSTDTSCVNPPTVQNAHILSRQMSKYPSGERVRYECRSPYEMFGDEEVMCLNGNWTEPPQCKDSTGKCGPPPPIDNGDITSFPLSVYAPASSVEYQCQNLYQLEGNKRITCRNGQWSEPPKCLHPCVISREIMENYNIALRWTAKQKLYLRTGESAEFVCKRGYRLSSRSHTLRTTCWDGKLEYPTCAKR
notes: complement factor H-related protein 1 (FHR1), human; source: bought: Abcam 152006; not shown: His6, C-terminal, kept

IC50 (complement C3b): 16.1 nM
IC50 (complement C5): 52.5 nM
B3: MFHR13 (FHR1_(1-2):FH1-4:FH13:FH_(19-20)) (other)
chain: EATFCDFPKINHGILYDEEKYKPFSQVPTGEVFYYSCEYNFVSPSKSFWTRITCTEEGWSPTPKCLRLCFFPFVENGHSESSGQTHLEGDTVQIICNTGYRLQNNENNISCVERGWSTPPKCRSEDCNELPPRRNTEILTGSWSDQTYPEGTQAIYKCRPGYRSLGNIIMVCRKGEWVALNPLRKCQKRPCGHPGDTPFGTFTLTGGNVFEYGVKAVYTCNEGYQLLGEINYRECDTDGWTNDIPICEVVKCLPVTAPENGKIVSSAMEPDREYHFGQAVRFVCNSGYKIEGDEEMHCSDDGFWSKEKPKCVEISCKSPDVINGSPISQKIIYKENERFQYKCNMGYEYSERGDAVCTESGWRPLPSCVAIDKLKKCKSSNLIILEEHLKNKKEFDHNSNIRYRCRGKEGWIHTVCINGRWDPEVNCSMAQIQLCGPPPPIDNGDITSFPLSVYAPASSVEYQCQNLYQLEGNKRITCRNGQWSEPPKCLHPCVISREIMENYNIALRWTAKQKLYSRTGESVEFVCKRGYRLSSRSHTLRTTCWDGKLEYPTCAKR
